Assay results taken from PMC9958104, “Arabidopsis histone H3 lysine 9 methyltransferases KYP/SUVH5/6 are involved in leaf development by interacting with AS1-AS2 to repress KNAT1 and KNAT2” (Communications Biology, 2023).

B1: maltose-binding protein (MBP) fused AS2 (MBP-AS2) (natural protein, Arabidopsis thaliana, UniProt O04479 1-199, looked up)
chain: MASSSTNSPCAACKFLRRKCQPECVFAPYFPPDQPQKFANVHKVFGASNVTKLLNELHPSQREDAVNSLAYEADMRLRDPVYGCVGVISLLQHQLRQLQIDLSCAKSELSKYQSLGILAATHQSLGINLLAGAADGTATAVRDHYHHHQFFPREQMFGGLDVPAGNNYDGGILAIGQITQFQQPRAAAGDDGRRTVDPS
notes: source: E. coli BL21(DE3), recombinant protein
B2: maltose-binding protein (MBP) fused AS1 (MBP-AS1) (natural protein, Arabidopsis thaliana, UniProt O80931 1-367, looked up)
chain: MKERQRWSGEEDALLRAYVRQFGPREWHLVSERMNKPLNRDAKSCLERWKNYLKPGIKKGSLTEEEQRLVIRLQEKHGNKWKKIAAEVPGRTAKRLGKWWEVFKEKQQREEKESNKRVEPIDESKYDRILESFAEKLVKERSNVVPAAAAAATVVMANSNGGFLHSEQQVQPPNPVIPPWLATSNNGNNVVARPPSVTLTLSPSTVAAAAPQPPIPWLQQQQPERAENGPGGLVLGSMMPSCSGSSESVFLSELVECCRELEEGHRAWADHKKEAAWRLRRLELQLESEKTCRQREKMEEIEAKMKALREEQKNAMEKIEGEYREQLVGLRRDAEAKDQKLADQWTSRHIRLTKFLEQQMGCRLDRP
notes: as for B1

Assays:
[1] = biological target: T1, MBP-KYP recombinant protein (Arabidopsis thaliana, UniProt Q8GZB6 1-624); test: quartz crystal microbalance (QCM); AffinixQN QCM biosensor; first protein immobilised on the Au electrode until saturation (AS1 for the AS1-KYP pair), second protein injected repeatedly; 50 mM Tris-HCl, 150 mM NaCl, 1 mM DTT, 25 °C; Langmuir equation; three replicates; settings: both partners purified
T1 construct: KRYPTONITE (KYP/SUVH4), Arabidopsis thaliana; KYP CDS cloned into the pMAL-c5v vector; The purification is not described; source: E. coli BL21(DE3), recombinant protein
T1 sequence (looked up): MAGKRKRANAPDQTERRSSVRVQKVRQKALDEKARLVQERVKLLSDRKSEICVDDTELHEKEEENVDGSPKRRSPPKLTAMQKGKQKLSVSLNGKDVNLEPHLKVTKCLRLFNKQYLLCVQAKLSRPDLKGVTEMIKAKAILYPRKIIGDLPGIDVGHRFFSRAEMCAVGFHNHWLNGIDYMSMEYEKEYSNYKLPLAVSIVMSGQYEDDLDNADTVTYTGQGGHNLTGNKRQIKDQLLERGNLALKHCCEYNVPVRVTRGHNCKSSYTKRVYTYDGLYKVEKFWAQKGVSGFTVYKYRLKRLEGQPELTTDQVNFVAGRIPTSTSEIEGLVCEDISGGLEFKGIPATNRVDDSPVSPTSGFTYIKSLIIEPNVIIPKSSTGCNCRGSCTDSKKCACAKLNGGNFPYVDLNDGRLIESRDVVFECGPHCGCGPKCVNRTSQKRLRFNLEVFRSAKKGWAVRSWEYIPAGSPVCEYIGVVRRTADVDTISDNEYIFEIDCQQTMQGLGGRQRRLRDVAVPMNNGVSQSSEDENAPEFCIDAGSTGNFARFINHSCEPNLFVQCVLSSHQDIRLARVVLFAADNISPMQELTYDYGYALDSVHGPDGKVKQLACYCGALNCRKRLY

[2] = biological target: B2; test: as above; settings: both partners purified

Row | Binder | Kd [1] [µM] | Kd [2] [µM]
1 | B1 | 18.6 | 25.3
2 | B2 | 33.6 | –
